From publication PMC4872087 (Nucleic Acids Research, 2016)
Several values for one entry are separate records, joined by “and”; a condition that tells them apart may be missing. Identical values can stand only once. Each block holds one molecule with its values, some of them ahead of it. Ends that are not written are not given here. Me3 = trimethyl (trimethylated lysine)

What was measured:
[1] = target: Histone H3K4me3 (Homo sapiens) (UniProt P68431); assay: ITC; details: cited from earlier work
[2] = target: T1, His-JMJD2C(874–988) (murine, UniProt Q8VCD7 874-988); assay: fluorescence polarisation; FP displacement assay: 10 μM His-JMJD2C(874–988), 15 nM FL-H3K4me3, dilution series of unlabeled H3(1–12)K4me3; details: both partners purified
T1 construct: JMJD2C (lysine demethylase), murine, amino acids 874-988, double Tudor domain; Modified pET15b with a minimal, non-cleavable hexahistidine tag; also called JMJD2C-Td; JMJD2C-TD; source: E. coli BL21(DE3) codon plus, purified (Talon resin, gel filtration)
T1 sequence (looked up): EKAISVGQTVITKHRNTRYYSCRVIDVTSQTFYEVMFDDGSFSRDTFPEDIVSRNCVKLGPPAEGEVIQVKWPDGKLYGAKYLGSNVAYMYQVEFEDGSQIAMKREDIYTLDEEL

[3] = target: T1, His-JMJD2C(874–988); assay: AlphaScreen or HTRF; AlphaLISA displacement assay with His-JMJD2C(874–988) and biotin-H3(1–23)K4me3 (methods: 300 nM and 25 nM; legend: 5 μM and 200 nM), dilution series of unlabeled H3(1–12)K4me3; beads 0.02 mg/ml; details: both partners purified
[4] = target: T2, His-Spindlin1(49–262) (human, UniProt Q9Y657 49-262); assay: fluorescence polarisation; FP displacement assay: 100 nM His-Spindlin1(49–262), 10 nM FL-H3K4me3, dilution series of unlabeled competitor; incubation 15, 30, 60 and 90 min (IC50 values in that order); 25°C; details: both partners purified
T2 construct: Spindlin1, human, amino acids 49-262; Modified pET15b with a minimal, non-cleavable hexahistidine tag; also called recombinant Spindlin1; source: E. coli BL21(DE3) codon plus, purified (Talon beads, gel filtration on superdex S75)

[5] = target: T2, His-Spindlin1(49–262); assay: fluorescent thermal shift assay (FTSA); 0.1 mg/ml His-Spindlin1(49–262), 5x SYPRO Orange, dilution series of H3(1–12)K4me3; 100 mM Hepes pH 7.5, 150 mM NaCl; KD by regression of Tm against ligand concentration; details: both partners purified
[6] = target: T3, Spindlin1, expressed by HL-60 suspension cells (human (endogenous in HL-60), UniProt Q9Y657 1-262); assay: cellular thermal shift assay (CETSA) on cell lysate; HL-60 cell lysate treated with 500 μM H3(1–12)K4me3 or, as control, H3(1–21)K4me0 at 37°C for 60 min; heated 3 min at a temperature gradient; soluble Spindlin1 by Western blot; apparent Tagg; details: one partner purified
T3 construct: Spindlin1, endogenous in HL-60 cells, detected by Western blot with an anti-Spindlin1 antibody; also called Spindlin1 (CETSA); source: endogenous, HL-60 cell lysate

[7] = target: T2, His-Spindlin1(49–262); assay: AlphaScreen or HTRF; AlphaLISA displacement assay: 15 nM His-Spindlin1(49–262), 30 nM biotin-H3(1–23)K4me3, dilution series of unlabeled competitor; incubation 15, 30, 60 and 90 min (IC50 values in that order); 25 mM Hepes pH 7.5, 100 mM NaCl, 1 mg/ml BSA, 0.05% CHAPS; 25°C; details: both partners purified
[8] = target: T1, His-JMJD2C(874–988); assay: fluorescent thermal shift assay (FTSA); 0.4 mg/ml His-JMJD2C(874–988), 5x SYPRO Orange, dilution series of H3(1–12)K4me3; KD by regression of Tm against ligand concentration; details: both partners purified
[9] = target: T1, His-JMJD2C(874–988); assay: fluorescence polarisation; KD determination of the binding of FL-H3K4me3 to JMJD2C-Td; same optimization route as for Spindlin1; details: both partners purified
[10] = target: T2, His-Spindlin1(49–262); assay: fluorescence polarisation; His-Spindlin1(49–262) 0.06 to 750 nM titrated against 10 nM FL-H3K4me3; 60 min at 25°C; corrected for unspecific binding with 10 μM unlabeled H3(1–12)K4me3; one-site binding fit; 25 mM Hepes pH 7.5, 100 mM NaCl, 1 mg/ml BSA, 0.05% CHAPS; details: both partners purified

T2 sequence (Q9Y657 49-262): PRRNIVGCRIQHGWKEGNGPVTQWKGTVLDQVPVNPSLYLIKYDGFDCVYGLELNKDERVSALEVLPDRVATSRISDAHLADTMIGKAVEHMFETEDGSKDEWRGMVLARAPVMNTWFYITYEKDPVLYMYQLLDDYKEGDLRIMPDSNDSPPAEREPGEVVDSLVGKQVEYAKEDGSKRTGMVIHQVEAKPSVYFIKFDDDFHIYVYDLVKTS
T3 sequence (Q9Y657 whole entry): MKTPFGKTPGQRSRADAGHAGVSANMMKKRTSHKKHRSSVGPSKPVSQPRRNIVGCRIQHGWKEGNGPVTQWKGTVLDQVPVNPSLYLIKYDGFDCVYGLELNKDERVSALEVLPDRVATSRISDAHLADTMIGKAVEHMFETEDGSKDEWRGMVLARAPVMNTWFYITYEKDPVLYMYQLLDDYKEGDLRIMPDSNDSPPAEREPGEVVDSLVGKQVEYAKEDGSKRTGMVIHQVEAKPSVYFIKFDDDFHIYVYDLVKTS

Molecule: Spindlin1 (from UniProt Q9Y657)
Kd [1]: 0.25 µM

IC50 [2]: 19.1 ± 2.1 µM
IC50 [3]: 4.5 ± 0.2 µM
IC50 [4]: 0.18 µM and 0.232 µM and 0.202 µM and 0.201 µM
Kd [5]: 0.38 µM
IC50 [7]: 118 nM (3×) and 116 nM
Kd [8]: 12.5 µM and 13.3 µM
B1: H3(1–12)K4me3 (peptide)
peptide: ARTK(Me3)QTARKSTG
notes: histone H3, amino acids 1-12; Free N-terminus (H2N-) and free C-terminus (-COOH) as printed; also called unlabeled H3K4me3 peptide; unlabeled H3(1–12)K4me3; source: synthetic peptide, custom synthesized by Peptide Specialty Laboratories GmbH
ΔTagg (against lysate treated with H3(1–21)K4me0) [6]: 5.9 °C

Kd [9]: 14.5 ± 1.9 µM
Kd [10]: 0.031 µM
B2: FL-H3K4me3 (peptide)
peptide: ARTKQTARKSTGGK
modifications: trimethylated lysine at position 4; mixed isomers of 5-(and-6)-carboxyfluorescein coupled to K14 side chain
notes: histone H3, N-terminal tail; also called fluorescent probe; fluorescein labeled peptide derived from histone H3; source: synthetic peptide, custom synthesized by Peptide Specialty Laboratories GmbH
